Data taken from patent US7247441B2, “Nucleic acid sequence and protein in addition to polypeptides coding for mannitol dehydrogenases or parts thereof and the production and use thereof in diagnosis and therapy” (Biomay Produktions- Und Handels-Aktienge Sellschaft, priority 2002, dated 2007).

B1: native purified MtDH: major allergen of Cladosporium herbarum, a NADP-dependent mannitol dehydrogenase, 29 kD, seq. ID No. 8 (protein, listed as Cladosporium herbarum)
chain: MPGQQATKHESLLDQLSLKGKVVVVTGASGPKGMGIEAARGCAEMGAAVAITYASRAQGAEENVKELEKTYGIKAKAYKCQVDSYESCEKLVKDVVADFGQIDAFIANAGATADSGILDGSVEAWNHVVQVDLNGTFHCAKAVGHHFKERGTGSLVITASMSGHIANFPQEQTSYNVAKAGCIHMARSLANEWRDFARVNSISPGYIDTGLSDFVPKETQQLWHSMIPMGRDGLAKELKGAYVYFASDASTYTTGADLLIDGGYTTR
B2: protein prepared in accordance with example 10: recombinantly produced Alternaria alternata mannitol dehydrogenase, seq. ID No. 11, purified over a nickel chelate column, approximately 30 kD (protein, listed as Alternaria alternata)
chain: MPITVPQATELKDLFSLKGKVVIVTGASGPTGIGTEAARGCAEYGADLAITYNSRAEGAEKNAKEMSEKYGVKVKAYKCQVNEYAQCEKLVQDVIKDFGKVDVFIANAGKTADNGILDATVEQWNEVIQTDLTGTFNCARAVGLHFRERKTGSLVITSSMSGHIANFPQEQASYNVAKAGCIHLAKSLANEWRDFARVNSISPGYIDTGLSDFVPQDIQKLWHSMIPMGRDAKATELKGAYVYFASDASSYCTGSDLLIDGGYCVR

Experiments:
IgE of patients' sera = assay: IgE immunoblots of Cladosporium herbarum crude extract with sera from 62 patients; type: binding, human; conditions: sera from 62 patients preselected in skin test or RAST, positive to Cladosporium herbarum extract
Protocol: For the purposes of the present invention, IgE immunoblots of Cladosporium herbarum crude extract were assayed with sera from 62 patients. An immunoreactive protein of molecular weight 29 kD, which was recognized by 61% of the patients' sera, was identified. […] No other allergen in the Cladosporium herbarum extract reacted with such a high percentage of patients' sera. It is therefore assumed that this protein is the major allergen of Cladosporium herbarum.

[1] = system: IgE antibodies of C. herbarum allergy sufferers; assay: IgE immune blot of the native purified MtDH after separation in the SDS gel; type: binding, human
Protocol: The protein was purified to homogeneity in a conventional method (example 1). The yield amounted to 1 mg.
Native purified MtDH was separated by molecular weight in a reducing SDS gel (Laemmli U K, Nature, 1970; 27:680–5). Subsequently, the protein was transferred onto a PVDF membrane in a Western blot (Towbin H et al., Proc. Natl. Acad. Sci USA, 1979; 76:4350–4). After free binding sites had been saturated (30 minutes in blocking buffer: 50 mM sodium phosphate pH 7.5, 0.5% Tween 20, 0.5% BSA, 0.05% NaN3), the membrane was incubated with patients' serum (1:10 diluted in blocking buffer). Then, the membrane was washed (with blocking buffer, 3×10 minutes) to remove unspecifically bound antibodies. Specifically bound IgE-Ab were detected with the aid of an ^125I-labeled rabbit anti-human IgE antibody. After the membrane had been exposed to an X-ray film, the result was available.

[2] = system: IgE antibodies of C. herbarum allergy sufferers; assay: IgE immune blot of the native purified MtDH after 2-dimensional separation; type: binding; conditions: patients' serum 1:10, 125I-labeled anti-human IgE
From the text: (§1) Native purified MtDH was separated under denaturing conditions in an isoelectric focusing (O'Farrel P H, J. Biol. Chem., 1975; 250:4007–21) according to the net charge (isoelectric point) of the protein. Thereafter, the protein separated thus was subjected to SDS gel electrophoresis (Laemmli U K, Nature, 1970; 27:680–5), whereby a separation by molecular weight took place in addition. The protein was transferred to a PVDF membrane in a Western blot (Towbin H et al., Proc. Natl. Acad. Sci. USA, 1979; 76:4350–4). After free binding sites had been saturated (30 minutes in blocking buffer: 50 mM sodium phosphate pH 7.5, 0.5% Tween 20, 0.5% BSA, 0.05% NaN3), the membrane was incubated with patients' serum (1:10 diluted in blocking buffer). Then, the membrane was washed (with blocking buffer, 3×10 minutes) to remove unspecifically bound antibodies. Specifically bound IgE-Ab were detected with the aid of an ^125I-labeled rabbit anti-human IgE antibody. After the membrane had been exposed to an X-ray film, the results were available: […]

[3] = biological target: T1, Cladosporium herbarum mannitol dehydrogenase (Cladosporium herbarum, UniProt P0C0Y5); assay: Enzyme activity determination, absorption of NADPH at 340 nm; type: biochemical
T1 construct: the enzyme activity was determined with the traditionally purified protein; from tissue; host or cells: Cladosporium herbarum extract (ammonium sulfate precipitation, HIC, anion exchange)
Protocol: The experiments reveal that the highly purified major allergen of Cladosporium herbarum is indeed a mannitol dehydrogenase which catalyzes the following metabolic reaction: Fructose+NADPH+H^+ ? mannitol+NADP^+. […] The method of the activity determination is described in example 3.
To confirm the results according to the invention, the enzyme activity was determined with the traditionally purified protein. The absorption of NADPH was measured in a photometer at 340 nm.
• 50 mM Tris-HCl, pH 7.5 • 0.25 mM NADPH or NADH • D-fructose or fructose-6-phosphate (0.1; 0.2; 0.4; 0.6; 0.8; 1.0; 1.2 M) • H2O to 1 ml • the reaction is started with 0.5 μl of MtDH Results: • Reaction with fructose and NADPH • No reaction with fructose-6-phosphate and NADH

[4] = Two-dimensional separation by isoelectric focusing and SDS-PAGE; type: physicochemical
From the text: as §1

[5] = system: IgE of sera of Alternaria alternata-sensitized patients; assay: IgE immune blot of recombinant Alternaria alternata mannitol dehydrogenase with the sera of 28 patients; type: binding, human
From the text: The following procedure was chosen for purifying the recombinantly produced protein, which is provided with a poly-His fragment at the C terminus: the E. coli cells with the expression vector, which express the foreign protein, the Alternaria alternata mannitol dehydrogenase, were first lysed in the customary manner. […] The inclusion bodies formed by overexpression of the foreign protein were first solubilized in a buffer with 6-molar urea and subsequently purified by affinity chromatography over a nickel chelate column. The recombinantly produced mannitol dehydrogenase was applied in 6 M urea buffer. Imidazole buffer was employed for the elution. The protein-comprising fractions were subsequently purified further by preparative SDS-PAGE gel electrophoresis and analyzed, during which process it emerged that the allergen was already purified to virtually complete homogeneity.
The protein prepared in accordance with example 10 was separated by gel electrophoresis and tested in an IgE immune blot with the sera of 28 patients. All of the 28 sera originated from patients who had shown a positive response to the Alternaria alternata crude extract and who had been pretested both in a skin test and in an RAST. A pronounced band was visible in the immune blot in the case of 9 of the patients' sera tested. This corresponds to approximately 32% of the Alternaria alternata-sensitized patients.

Row | Molecule | patients' sera recognizing the protein (IgE of patients' sera) [%] | reaction with IgE antibodies of C. herbarum allergy sufferers ([1]; SDS gel, patients' serum 1:10, 125I-labeled anti-human IgE) | result in the IgE immunoblot ([1]; pool of six patients) | reaction with IgE antibodies of C. herbarum allergy sufferers [2] | enzyme reaction ([3]; with fructose and NADPH) | enzyme reaction ([3]; with fructose-6-phosphate and NADH) | isoelectric point [4] | share of Alternaria alternata-sensitized patients with a pronounced band ([5]; 28 sera) | patients' sera with a pronounced band in the immune blot ([5]; of 28 sera positive to Alternaria alternata crude extract)
1 | B1 | 61 | reacts specifically | highly positive | reacts specifically | Reaction | No reaction | 5.8 |  | 
2 | B2 |  |  |  |  |  |  |  | approximately 32% | 9
